The labels stand for the following.
T1: ヒトTFPI (human tissue factor pathway inhibitor; American Diagnostica) (human, UniProt P10646 29-304, limits assumed)
T1 construct: Coated on plates (ELISA) or amine-coupled to a CM5 chip (Biacore); also called h-TFPI; hTFPI
T1 sequence (looked up): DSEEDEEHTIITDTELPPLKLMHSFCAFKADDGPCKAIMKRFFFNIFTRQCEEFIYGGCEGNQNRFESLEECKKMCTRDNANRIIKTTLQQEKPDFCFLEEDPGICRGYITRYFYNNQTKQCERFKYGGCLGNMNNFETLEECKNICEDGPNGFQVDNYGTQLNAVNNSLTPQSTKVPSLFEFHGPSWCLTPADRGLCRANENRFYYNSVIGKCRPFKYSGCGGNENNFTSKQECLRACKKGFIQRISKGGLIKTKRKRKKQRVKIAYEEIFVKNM

T2: マウスTFPI (mouse TFPI; R&D System) (mouse, UniProt O54819 29-289, limits assumed)
T2 construct: also called m-TFPI; mTFPI
T2 sequence (looked up): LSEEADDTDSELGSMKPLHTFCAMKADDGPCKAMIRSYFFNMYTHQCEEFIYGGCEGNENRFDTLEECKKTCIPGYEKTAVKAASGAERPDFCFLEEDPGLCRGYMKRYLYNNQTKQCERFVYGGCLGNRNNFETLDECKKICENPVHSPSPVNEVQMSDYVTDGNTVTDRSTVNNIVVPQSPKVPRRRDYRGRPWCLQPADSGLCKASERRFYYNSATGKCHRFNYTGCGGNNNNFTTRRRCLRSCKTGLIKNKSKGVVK

B1: TP-2G6 (Fab, V domains shown)
VH: QVQLQQSGPGLVKPSQTLSLTCAISGDSVSSSSAAWSWIRQSPGRGLEWLGIIYYRSKWYNDYAVSVKSRITINPDTSKNQFSLQLNSVTPEDTAVYYCARHSMVGFDVWGQGTLVTVSS
VL: DIVLTQSPATLSLSPGERATLSCRASQYVTSSYLAWYQQKPGQAPRLLIYGSSRATGVPARFSGSGSGTDFTLTISSLEPEDFATYYCQQYSSSPITFGQGTKVEIKR
notes: HuCAL Gold human Fab from E. coli TG1; also called 2G6-Fab
B2: 2G6-IgG (antibody, V domains shown)
VH: QVQLQQSGPGLVKPSQTLSLTCAISGDSVSSSSAAWSWIRQSPGRGLEWLGIIYYRSKWYNDYAVSVKSRITINPDTSKNQFSLQLNSVTPEDTAVYYCARHSMVGFDVWGQGTLVTVSS
VL: DIVLTQSPATLSLSPGERATLSCRASQYVTSSYLAWYQQKPGQAPRLLIYGSSRATGVPARFSGSGSGTDFTLTISSLEPEDFATYYCQQYSSSPITFGQGTKVEIKR
notes: also called IgG-2G6; TP-2G6 after conversion to IgG
B3: TP-4A7 (Fab, V domains shown)
VH: QVQLVESGGGLVQPGGSLRLSCAASGFTFRNYAMNWVRQAPGKGLEWVSVISGSSSYTYYADSVKGRFTISRDNSKNTLYLQMNSLRAEDTAVYYCARADLPYMVFDYWGQGTLVTVSS
VL: DIELTQPPSVSVAPGQTARISCSGDALGSKFAHWYQQKPGQAPVLVIYDDSERPSGIPERFSGSNSGNTATLTISGTQAEDEADYYCQAYDSGLLYVFGGGTKLTVLG
notes: HuCAL Gold human Fab from E. coli TG1
B4: TP-3G3 (Fab, V domains shown)
VH: QVQLVESGGGLVQPGGSLRLSCAASGFTFSSYSMSWVRQAPGKGLEWVSSISSSSSNTYYGDSVKGRFTISRDNSKNTLYLQMNSLRAEDTAVYYCARMHYKGMDIWGQGTLVTVSS
VL: DIQMTQSPSSLSASVGDRVTITCRASQNIHSHLNWYQQKPGKAPKLLIYDASSLQSGVPSRFSGSGSGTDFTLTISSLQPEDFAVYYCQQYYDYPLTFGQGTKVEIKR
notes: as for B3
B5: TP-3H2 (Fab, V domains shown)
VH: QVQLVESGGGLVQPGGSLRLSCAASGFTFNSYYMSWVRQAPGKGLEWVSNISSSGSNTNYADSVKGRFTISRDNSKNTLYLQMNSLRAEDTAVYYCARVHYGFDFWGQGTLVTVSS
VL: DIELTQPPSVSVAPGQTARISCSGDKLGKYYAYWYQQKPGQAPVLVIYGDSKRPSGIPERFSGSNSGNTATLTISGTQAEDEADYYCSSAAFGSTVFGGGTKLTVLG
notes: as for B3
B6: TP-3G1 (Fab, V domains shown)
VH: QVQLQQSGPGLVKPSQTLSLTCAISGDSVSSNSGGWGWIRQSPGRGLEWLGLIYYRSKWYNAYAVSVKSRITINPDTSKNQFSLQLNSVTPEDTAVYYCARYLGSNFYVYSDVWGQGTLVTVSS
VL: DIQMTQSPSSLSASVGDRVTITCRASQGISSYLHWYQQKPGKAPKLLIYGASTLQSGVPSRFSGSGSGTDFTLTISSLQPEDFATYYCQQQNGYPFTFGQGTKVEIKR
notes: as for B3
B7: TP-2B3 (Fab, V domains shown)
VH: QVQLQQSGPGLVKPSQTLSLTCAISGDSVSSNSAAWGWIRQSPGRGLEWLGMIYYRSKWYNSYAVSVKSRITINPDTSKNQFSLQLNSVTPEDTAVYYCARTMSKYGGPGMDVWGQGTLVTVSS
VL: DIVLTQSPATLSLSPGERATLSCRASQNIGSNYLAWYQQKPGQAPRLLIYGASTRATGVPARFNGSGSGTDFTLTISSLEPEDFAVYYCQQLNSIPVTFGQGTKVEIKR
notes: as for B3
B8: TP-4B7 (Fab, V domains shown)
VH: QVQLQQSGPGLVKPSQTLSLTCAISGDSVSSNSAAWSWIRQSPGRGLEWLGIIYKRSKWYNDYAVSVKSRITINPDTSKNQFSLQLNSVTPEDTAVYYCARWHSDKHWGFDYWGQGTLVTVSS
VL: DIVMTQSPLSLPVTPGEPASISCRSSQSLVFSDGNTYLNWYLQKPGQSPQLLIYKGSNRASGVPDRFSGSGSGTDFTLKISRVEAEDVGVYYCQQYDSYPLTFGQGTKVEIKR
notes: as for B3
B9: TP-2A10 (Fab, V domains shown)
VH: QVQLVESGGGLVQPGGSLRLSCAASGFTFTSYSMNWVRQAPGKGLEWVSAISYTGSNTHYADSVKGRFTISRDNSKNTLYLQMNSLRAEDTAVYYCARAFLGYKESYFDIWGQGTLVTVSS
VL: DIELTQPPSVSVAPGQTARISCSGDKLGKKYVHWYQQKPGQAPVLVIYGDDKRPSGIPERFSGSNSGNTATLTISGTQAEDEADYYCQAWGSISRFVFGGGTKLTVLG
notes: as for B3
B10: TP-2B4 (Fab, V domains shown)
VH: QVQLVESGGGLVQPGGSLRLSCAASGFTFSNYSMTWVRQAPGKGLEWVSGISYNGSNTYYADSVKGRFTISRDNSKNTLYLQMNSLRAEDTAVYYCARIYYMNLLAGWGQGTLVTVSS
VL: DIELTQPPSVSVAPGQTARISCSGDALGTYYAYWYQQKPGQAPVLVIYGDMNRPSGIPERFSGSNSGNTATLTISGTQAEDEADYYCQSYDAGVKPAVFGGGTKLTVLG
notes: as for B3
B11: TP-3F2 (Fab, V domains shown)
VH: QVQLVESGGGLVQPGGSLRLSCAASGFTFSSYSMHWVRQAPGKGLEWVSGISYSSSFTYYADSVKGRFTISRDNSKNTLYLQMNSLRAEDTAVYYCARALGGGVDYWGQGTLVTVSS
VL: DIELTQPPSVSVAPGQTARISCSGDNLPSKSVYWYQQKPGQAPVLVIYGDNNRPSGIPERFSGSNSGNTATLTISGTQAEDEADYYCQSWTSRPMVVFGGGTKLTVLG
notes: as for B3
B12: TP-2A8 (Fab, V domains shown)
VH: QVQLVESGGGLVQPGGSLRLSCAASGFTFRSYGMSWVRQAPGKGLEWVSSIRGSSSSTYYADSVKGRFTISRDNSKNTLYLQMNSLRAEDTAVYYCARKYRYWFDYWGQGTLVTVSS
VL: DIELTQPPSVSVAPGQTARISCSGDNLRNYYAHWYQQKPGQAPVVVIYYDNNRPSGIPERFSGSNSGNTATLTISGTQAEDEADYYCQSWDDGVPVFGGGTKLTVLG
notes: HuCAL Gold human Fab from E. coli TG1; also called Fab-2A8; TP-2A8-Fab
B13: TP-2B8 (Fab, V domains shown)
VH: QVQLVQSGAEVKKPGASVKVSCKASGYTFTGNSMHWVRQAPGQGLEWMGTIFPYDGTTKYAQKFQGRVTMTRDTSISTAYMELSSLRSEDTAVYYCARGVHSYFDYWGQGTLVTVSS
VL: DIELTQPPSVSVAPGQTARISCSGDNLRGYYASWYQQKPGQAPVLVIYEDNNRPSGIPERFSGSNSGNTATLTISGTQAEDEADYYCQSWDSPYVHVFGGGTKLTVLG
notes: as for B3
B14: TP-2B1 (Fab, V domains shown)
VH: QVQLVESGGGLVQPGGSLRLSCAASGFTFSSYSMSWVRQASGKGLEWVSSIKGSGSNTYYADSVKGRFTISRDNSKNTLYLQMNSLRAEDTAVYYCARNGGLIDVWGQGTLVTVSS
VL: DIELTQPPSVSVAPGQTARISCSGDNLGNKYAHWYQQKPGQAPVLVIYYDNKRPSGIPERFSGSNSGNTATLTISGTQAEDEADYYCQSWTPGSNTMVFGGGTRLTVLG
notes: as for B3

What is called EC50 is the concentration needed to bring the measured effect to its halfway point.

The first assay has as its target T1, ヒトTFPI (human tissue factor pathway …). The assay is described as follows: ELISA on coated human TFPI. A general note: ELISA stands for enzyme-linked immunosorbent assay.
In turn, B1 yielded a concentration giving a half-maximal response (EC50) of 0.48 nM.
Consider B2, for which the response was half-maximal at 0.22 nM (EC50) and the “fold improvement of EC50 against 2G6-Fab” value was 2 fold.

Another assay deals with T2, マウスTFPI (mouse TFPI; R&D System). Put plainly: ELISA on coated mouse TFPI.
Take B1: a half-maximal response (EC50) required 5.18 nM. This counts as single-digit nanomolar.
On to B2, for which the EC50 was 0.51 nM and the “fold improvement of EC50 against 2G6-Fab” value was determined as 10 fold.

The target in the next assay is T1, ヒトTFPI (human tissue factor pathway …). The assay is described as follows: ELISA, Fab in bacterial lysate on coated human TFPI.
In the case of B3, the binding result is reported as “binds”.
As for B4, the binding result is recorded as “binds”.
Turning to B5, the binding result is listed as “binds”.
As to B6, the binding result was “binds”.
For B7, the binding result is given as “binds”.
With B8, the binding result was “binds”.
With B9, the binding result was “binds”.
For B10, the binding result is recorded as “binds”.
Turning to B11, the binding result is listed as “binds”.
In the case of B12, the binding result is recorded as “binds”.
On the same count and under the same terms, the same measure for B13: “binds”; for B14: “binds”.
